Ends that are not written are not given here.
How the values were obtained:
[1] = molecular target: T1, WT1STHV biotin labeled HCV core peptide (hepatitis C virus, biotin labeled); test: EIA; Ab 125 ng/mL captured on anti-mouse Fc; bt-peptide 500 ng/mL
T1 peptide: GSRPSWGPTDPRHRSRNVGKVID

[2] = molecular target: T2, Mut1T110N biotin labeled HCV core peptide (hepatitis C virus, biotin labeled); test: as above
T2 peptide: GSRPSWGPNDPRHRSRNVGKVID

[3] = molecular target: T3, Mut6T110S biotin labeled HCV core peptide (hepatitis C virus); test: as above
[4] = molecular target: T4, C113WT biotin labeled HCV core peptide (hepatitis C virus, also: biotin labeled, position not given here); test: as above
T4 peptide: RGSRPSWGPTD

[5] = molecular target: T5, C113T109N biotin labeled HCV core peptide (hepatitis C virus, also: biotin labeled, position not given here); test: as above
T5 peptide: RGSRPSWGPND

[6] = molecular target: T1, WT1STHV biotin labeled HCV core peptide; test: EIA; Ab 250 ng/mL captured on anti-mouse Fc; bt-peptide 500 ng/mL
[7] = molecular target: T2, Mut1T110N biotin labeled HCV core …; test: as above
[8] = molecular target: T3, Mut6T110S biotin labeled HCV core …; test: as above
[9] = molecular target: T4, C113WT biotin labeled HCV core peptide; test: as above
[10] = molecular target: T5, C113T109N biotin labeled HCV core …; test: as above
[11] = molecular target: T1, WT1STHV biotin labeled HCV core peptide; test: EIA; Ab 500 ng/mL captured on anti-mouse Fc; bt-peptide 500 ng/mL
[12] = molecular target: T2, Mut1T110N biotin labeled HCV core …; test: as above
[13] = molecular target: T3, Mut6T110S biotin labeled HCV core …; test: as above
[14] = molecular target: T4, C113WT biotin labeled HCV core peptide; test: as above
[15] = molecular target: T5, C113T109N biotin labeled HCV core …; test: as above
[16] = molecular target: T1, WT1STHV biotin labeled HCV core peptide; test: EIA; Ab 62.5 ng/mL captured on anti-mouse Fc; bt-peptide 500 ng/mL
[17] = molecular target: T2, Mut1T110N biotin labeled HCV core …; test: as above
[18] = molecular target: T3, Mut6T110S biotin labeled HCV core …; test: as above
[19] = molecular target: T4, C113WT biotin labeled HCV core peptide; test: as above
[20] = molecular target: T5, C113T109N biotin labeled HCV core …; test: as above
[21] = molecular target: T1, WT1STHV biotin labeled HCV core peptide; test: EIA; Ab 3.906 ng/mL captured on anti-mouse Fc; bt-peptide 500 ng/mL
[22] = molecular target: T2, Mut1T110N biotin labeled HCV core …; test: as above
[23] = molecular target: T3, Mut6T110S biotin labeled HCV core …; test: as above
[24] = molecular target: T4, C113WT biotin labeled HCV core peptide; test: as above
[25] = molecular target: T5, C113T109N biotin labeled HCV core …; test: as above
[26] = molecular target: T1, WT1STHV biotin labeled HCV core peptide; test: EIA; Ab 15.625 ng/mL captured on anti-mouse Fc; bt-peptide 500 ng/mL
[27] = molecular target: T2, Mut1T110N biotin labeled HCV core …; test: as above

B1: HCV Neo4 monoclonal antibody (antibody, V domains shown)
VH: QIQLKESGPAVIKPSQSLSLTCIVSGFSITSSVYCWQWIRQPPGKGLEWMGRICYDGSVDYSPSITSRGTISRDTSLNKVFFQLSSVTNEDTAMYYCSRENHIDYYDTTYPSFDVWGAGTTVTVSS
VL: DIVLTQSPASLIVSLGQRATISCRASKSVNEYGYTYMHWYQQKPGLPPKLLIYLASNLDSGVPARFSGSGSGTDFTLNIHPVEEEDAATYYCQHSRELPYTFGGGTKLEIKR
signal at 492 nm [1]: 1.93 OD 492 nm | signal at 492 nm [2]: 0.204 OD 492 nm | signal at 492 nm [3]: 1.27 OD 492 nm | signal at 492 nm [4]: 0.0599 OD 492 nm | signal at 492 nm [5]: 0.0858 OD 492 nm | signal at 492 nm [6]: 1.99 OD 492 nm | signal at 492 nm [7]: 0.089 OD 492 nm | signal at 492 nm [8]: 1.15 OD 492 nm | signal at 492 nm [9]: 0.0607 OD 492 nm | signal at 492 nm [10]: 0.111 OD 492 nm | signal at 492 nm [11]: 1.91 OD 492 nm | signal at 492 nm [12]: 0.065 OD 492 nm | signal at 492 nm [13]: 1.17 OD 492 nm | signal at 492 nm [14]: 0.0561 OD 492 nm | signal at 492 nm [15]: 0.0803 OD 492 nm | signal at 492 nm [16]: 1.85 OD 492 nm | signal at 492 nm [17]: 0.139 OD 492 nm | signal at 492 nm [18]: 1.11 OD 492 nm | signal at 492 nm [19]: 0.0626 OD 492 nm | signal at 492 nm [20]: 0.111 OD 492 nm | signal at 492 nm [21]: 0.669 OD 492 nm | signal at 492 nm [22]: 0.0719 OD 492 nm | signal at 492 nm [23]: 0.0847 OD 492 nm | signal at 492 nm [24]: 0.0694 OD 492 nm | signal at 492 nm [25]: 0.0717 OD 492 nm | signal at 492 nm [26]: 1.42 OD 492 nm | signal at 492 nm [27]: 0.0771 OD 492 nm
